Laboratory results as given in US20170233703A1.
One block for each substance: values may come before it.

What was measured:
[1] = target: C-terminal dCas9 constituent split at residue 1153 fused to Suntag (Streptococcus pyogenes) (UniProt Q99ZW2)
[2] = target: IntC:dCas9C:Suntag containing the residues from 1154 to 1368 (Streptococcus pyogenes) (UniProt Q99ZW2)
[3] = target: dCas9M:IntN containing the residues from 714 to 1153 (Streptococcus pyogenes) (UniProt Q99ZW2)
[4] = target: IntC:dCas9C-VRER:VPR split at residue 713 (two-output sensory switch, FIG. 27) (Streptococcus pyogenes) (UniProt Q99ZW2)
[5] = target: IntC:dCas9C:VPR split at residue 713 (dCas9 from residue 714) (Streptococcus pyogenes) (UniProt Q99ZW2)

TagBFP expression, three-input logic AND circuit (two split-dCas9 constituents and rapalog), HEK293 cells [1]: 140 fold
Substance: N-terminal dCas9 constituent split at residue 1153 (intein fusion not stated at the place of the experiment) (from UniProt Q99ZW2)

Substance: dCas9M:IntN containing the residues from 714 to 1153 (from UniProt Q99ZW2)
TagBFP expression, three-input logic AND circuit of three split-dCas9 fragments, HEK293 cells [2]: 110 fold

Substance: dCas9N containing dCas9 residues from 1 to 713, without intein fusion (from UniProt Q99ZW2)
TagBFP expression, three-input logic AND circuit of three split-dCas9 fragments, HEK293 cells [3]: 110 fold

Substance: dCas9N:IntN split at residue 713 (from UniProt Q99ZW2)
mKate2 expression, two-input two-output sensory switch set by shRNA-FF5 and shRNA-FF4 [4]: 20 fold
EYFP expression, two-input two-output sensory switch set by shRNA-FF5 and shRNA-FF4 [5]: 20 fold
